The chains are these.
B1: human recombinant FGFR1 Fc chimera (Fc fusion, UniProt P11362 22-376, looked up)
chain: RPSPTLPEQAQPWGAPVEVESFLVHPGDLLQLRCRLRDDVQSINWLRDGVQLAESNRTRITGEEVEVQDSVPADSGLYACVTSSPSGSDTTYFSVNVSDALPSSEDDDDDDDSSSEEKETDNTKPNRMPVAPYWTSPEKMEKKLHAVPAAKTVKFKCPSSGTPNPTLRWLKNGKEFKPDHRIGGYKVRYATWSIIMDSVVPSDKGNYTCIVENEYGSINHTYQLDVVERSPHRPILQAGLPANKTVALGSNVEFMCKVYSDPQPHIQWLKHIEVNGSKIGPDNLPYVQILKTAGVNTTDKEMEVLHLRNVSFEDAGEYTCLAGNSIGLSHHSAWLTVLEALEERPAVMTSPLYLE
notes: It was immobilized on a CM-5 SPR chip; not shown: Fc part of the chimera
B2: MBP-tagged C66 fusion protein (C-terminal 66-amino acid FGF-binding domain of human BP3) (other, not shown: large carriers)
chain: APPKENPSERKTNEGKRKAALVPNEERPMGTGPDPDGLDGNAELTETYCAEKWHSLCNFFVNFWNG
notes: MBP fusion with an apparent molecular mass of 52 kDa; also called C66 fragment; C-terminal hBP3 region

The target of test [1] is T1, MBP-tagged recombinant human FGFBP3 (MBP-BP3) (human, UniProt P0AEX9 27-392 = MBP, limits assumed).
T1 construct: Bacterially expressed MBP fusion; The order MBP then BP3 follows the pMAL-p2X vector design; also called hBP3
Briefly: SPR, BP3 over immobilized FGFR1 Fc chimera (FIG. 6B). On the procedure: (§1) Biacore T200 instrument (GE Healthcare) was used for surface plasmon resonance measurements. Human recombinant FGFR4 or FGFR1 Fc chimera in HBS-P buffer (0.01 M HEPES pH 7.4, 0.15 M NaCl, 0.05% P-20) were immobilized on a flow cell of a CM-5 sensor chip (GE Healthcare, Piscataway, N.J.) via amine coupling. A blank flow cell was used as a negative control for non-specific binding to the sensor surface. […] Dissociation constants were calculated from the association and dissociation rates of the proteins after washing. The experiments were performed in triplicate.

Another test addresses T2, human recombinant FGF19 (human, UniProt O95750 25-216).
T2 construct: Bought recombinant protein; also called fibroblast growth factor 19
Briefly: SPR, C66 over immobilized FGF19 (FIG. 7B). On the technique in general: SPR reads the build-up and loss of mass on a sensor chip optically.

Test [2] addresses T3, human recombinant FGFR4 Fc Chimera (human, UniProt P22455 22-369).
T3 construct: Bought reagent; It was immobilized on ELISA plates and on a CM-5 SPR chip; also called FGF Receptor 4; fibroblast growth factor receptor 4; Fc part of the bought chimera not given
Briefly: SPR, C66 over immobilized FGFR4 (FIG. 7B). Here is the method: as §1

Test [3] has as its target B1. Briefly: SPR, equilibrium binding to immobilized FGFR1 Fc chimera (FIG. 7C). Here is the method: as §1

T2 sequence (O95750 25-216 limits assumed): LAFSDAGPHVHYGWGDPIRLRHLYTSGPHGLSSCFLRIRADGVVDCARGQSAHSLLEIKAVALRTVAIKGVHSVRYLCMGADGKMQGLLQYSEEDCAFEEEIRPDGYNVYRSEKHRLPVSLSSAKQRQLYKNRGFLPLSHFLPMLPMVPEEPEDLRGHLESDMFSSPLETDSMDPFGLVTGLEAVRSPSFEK

Regarding B1, the binding result in test [1] is listed as “no binding (tested: 4, 2, or 1 nM)”.
As for B2, the figures for the binding result (with human recombinant FGF19; in test [2]; in test [3]) were “binds”, “no binding (tested: 245 nM)” and “no binding (tested: 245 nM)”, respectively.
